Source: US9359634B2, “Fast reaction kinetics of enzymes having low activity in dry chemistry layers” (Roche Diabetes Care, Inc., priority 2009, dated 2016)
Substitutions are numbered along the chain they refer to. Like-named read-outs stand apart in the source and are kept apart here.

B1: WT-GlucDH: wild type (native) glucose dehydrogenase from Bacillus subtilis (protein, listed as Bacillus subtilis)
chain: MYPDLKGKVVAITGAASGLGKAMAIRFGKEQAKVVINYYSNKQDPNEVKEEVIKAGGEAVVVQGDVTKEEDVKNIVQTAIKEFGTLDIMINNAGLENPVPSHEMPLKDWDKVIGTNLTGAFLGSREAIKYFVENDIKGNVINMSSVHEVIPWPLFVHYAASKGGIKLMTETLALEYAPKGIRVNNIGPGAINTPINAEKFADPKQKADVESMIPMGYIGEPEEIAAVAVWLASKESSYVTGITLFADGGMTKYPSFQAGRG
B2: GlucDH_E170K (protein, UniProt P12310 1-261, looked up, variant E170K)
Glucose 1-dehydrogenase: B1 chain with E170K, V229A, S236A, K252Q
B3: GlucDH_E170K_K252L (protein)
chain: B1 chain with E170K, K252L
modifications: Mutant of glucose dehydrogenase from Bacillus subtilis

Key:
Format in all cases: biochemical
[1] = target: T1, glucose dehydrogenase from Bacillus subtilis (Bacillus subtilis, UniProt P12310, A229V/A236S/Q252K); details: enzyme used in the test strips; coenzyme NAD
[2] = tested on: glucose dehydrogenase from Bacillus subtilis; details: for activity, U/mg enzyme / activity, U/mg lyophilisate: cuvette, 25° C., 340 nm; for % U/mg lyophilisate relative to NAD: coenzyme carbaNAD relative to NAD; for activity with carbaNAD compared with activity with NAD: standardized conditions in a cuvette
[3] = target: T1, glucose dehydrogenase from Bacillus subtilis; details: test strips, coenzyme NAD, blood with adjusted glucose values; 1556.2 to 25.10 kU/100 g mass
[4] = tested on: glucose dehydrogenase from Bacillus subtilis; assay: Enzyme activity before and after temperature stress (stress test) of clones; details: stress test: 30 min at 50° C.; tested in Escherichia coli XL1blue MRF′
Experimental: The PCR product obtained was transformed into Escherichia coli XL1blue MRF′. The cells were plated out, clones containing plasmid were cultured overnight and the enzyme activity was determined before and after temperature stress (stress test: 30 min at 50° C.).

[5] = target: T2, glucose dehydrogenase from Bacillus subtilis (Bacillus subtilis, UniProt P12310, A229V/A236S/E170K/Q252L); details: enzyme used in the test strips; coenzyme carbaNAD
[6] = target: T2, glucose dehydrogenase from Bacillus subtilis; details: test strips, coenzyme carbaNAD, 4.60 kU/100 g mass; versus all wild type/NAD formulations of table 3

T2 sequence (P12310 whole entry E170K/A229V/A236S/Q252L): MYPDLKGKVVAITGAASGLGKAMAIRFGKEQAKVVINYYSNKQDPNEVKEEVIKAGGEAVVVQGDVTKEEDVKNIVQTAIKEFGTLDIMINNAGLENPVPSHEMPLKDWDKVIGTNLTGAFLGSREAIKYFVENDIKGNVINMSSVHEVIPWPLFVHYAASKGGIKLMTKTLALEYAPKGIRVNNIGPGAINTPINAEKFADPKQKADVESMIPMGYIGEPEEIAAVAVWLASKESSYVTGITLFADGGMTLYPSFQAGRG

Molecule	lyophilisate activity (U/mg) [1]	Vmax (U/mg lyophilsate) [2]	Km ([2]; coenzyme NAD)	activity, U/mg enzyme ([2]; coenzyme NAD)	activity, U/mg lyophilisate ([2]; coenzyme NAD)	Km ([2]; coenzyme carbaNAD)	Vmax (U/mg lyophilisate) ([2]; coenzyme carbaNAD)	% U/mg lyophilisate relative to NAD [2]	activity, U/mg enzyme ([2]; coenzyme carbaNAD)	activity, U/mg lyophilisate ([2]; coenzyme carbaNAD)	activity with carbaNAD compared with activity with NAD [2]	kinetics of the conversion of glucose [3]	residual activity after stress (%) [4]	lyophilisate activity (U/mg) [5]	kinetics of the conversion of glucose [6]
B1	251 U/mg	122	80 µM	484 U/mg enzyme	203 U/mg lyophilisate	300 µM	3 U/mg lyophilisate	1.7%	8.2 U/mg enzyme	3.4 U/mg lyophilisate	two orders of magnitude lower	worsened with a decreasing enzyme content	23%	–	–
B2	–	–	–	–	–	–	–	–	–	–	–	–	80%	–	–
B3	–	144	70 µM	270 U/mg enzyme	167 U/mg lyophilisate	1400 µM	13 U/mg lyophilisate	1.4%	3.7 U/mg enzyme	2.3 U/mg lyophilisate	about two orders of magnitude lower	–	130%	2.3 U/mg	better kinetics
